Assay results reported in article PMC4880302, “A Chimeric Pneumovirus Fusion Protein Carrying Neutralizing Epitopes of Both MPV and RSV” (PLoS ONE, 2016).

Target: T1, wild-type HMPV F protein (soluble, secreted, with C-terminal GCNt trimerization domain) (human metapneumovirus, B2 strain)
T1 construct: fusion (F) glycoprotein of human metapneumovirus, B2 strain; soluble secreted form, GCNt joined in-frame with the heptad repeat of the C-terminal HRB; Preparations are mixtures of pre- and post-fusion forms; heating to 50°C for 30 min converts them to the post-fusion form (written as assays of their own); The trimer may rest in part on the GCNt domain; also called wt HMPV F; MPV F-GCNt; not …
Assay: SPR; BiOptix 404pi; F proteins captured on NiHC1000m chip through their C-terminal His tag to 120 RU; Fab injected at 300 to 0.14 nM, 100 ul/min; 10 mM HEPES pH 7.2, 150 mM NaCl, 0.005% Tween 20, 50 uM EDTA; simple Langmuir model
Details: both partners purified

B1: motavizumab Fab (affinity-matured variant of palivizumab, anti-RSV F site II/A) (Fab, V domains shown)
VH: QVTLRESGPALVKPTQTLTLTCTFSGFSLSTAGMSVGWIRQPPGKALEWLADIWWDDKKHYNPSLKDRLTISKDTSKNQVVLKVTNMDPADTATYYCARDMIFNFYFDVWGQGTTVTVSS
VL: DIQMTQSPSTLSASVGDRVTITCSASSRVGYMHWYQQKPGKAPKLLIYDTSKLASGVPSRFSGSGSGTEFTLTISSLQPDDFATYYCFQGSGYPFTFGGGTKVEIK
notes: heavy chain of the Fab in the motavizumab:RSV peptide complex PDB 3IXT; light chain of the Fab in the motavizumab:RSV peptide complex PDB 3IXT; Variable genes cloned into pEE6.4 (heavy) and pEE12.4 (light) vectors (Lonza); constant parts of the Fab construct are not described; source: FreeStyle 293-F cells, co-transfected (PEI), purified from supernatant (protein G column)
Does B1 bind?
Result: no binding
